Measured values: patent US20140065645

Target: T1, FITC-labeled polypeptide linker, coupled to a bead
T1 chain: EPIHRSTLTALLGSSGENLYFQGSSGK

B1: Tobacco etch virus (TEV) protease (protein)
chain: GESLFKGPRDYNPISSTICHLTNESDGHTTSLYGIGFGPFIITNKHLFRRNNGTLLVQSLHGVFKVKNTTTLQQHLIDGRDMIIIRMPKDFPPFPQKLKFREPQREERICLVTTNFQTKSMSSMVSDTSCTFPSSDGIFWKHWIQTKDGQCGSPLVSTRDGFIVGIHSASNFTNTNNYFTSVPKNFMELLTNQEAQQWVSGWRLNADSVLWGGHKVFMSKPEEPFQPVKEATQLMNELVYSQ
Work on B1 yielded an Intensity of Signal (FITC fluorescence of the linker-bead complex after 1 hour with TEV protease, 1:1 by mass) of 10.3, an Intensity of Signal (FITC fluorescence of the linker-bead complex after 1 hour with TEV protease, 1:2 by mass) of 9 and a Ratio of Signal/Background Signal (1:1 TEV protease) of 1.24. The Ratio of Signal/Background Signal (1:2 TEV protease) was 1.08 and the “cleavage of the polypeptide linker” value was “Most polypeptide linkers were cleaved when the mass of the added enzyme was twice the mass of the polypeptide linker”.
